The target of data set [1] is CEBPB B-ZIP domain;ATF4 B-ZIP domain (mouse;mouse, UniProt P28033;Q06507 222-285;276-339, |). Put plainly: EMSA.
The target of a further data set is CEBPB B-ZIP domain (mouse, UniProt P28033 222-285). Description: EMSA. For orientation: A gel shift assay detects complexes by their altered migration in electrophoresis.
Sequence of CEBPB B-ZIP domain (P28033 222-285): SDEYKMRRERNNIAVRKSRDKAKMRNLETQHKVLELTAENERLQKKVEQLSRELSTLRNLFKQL

Sequence of CEBPB B-ZIP domain;ATF4 B-ZIP domain (P28033 222-285, chain 1 of 2): as the sequence (P28033 222-285) above
Sequence of CEBPB B-ZIP domain;ATF4 B-ZIP domain (Q06507 276-339, chain 2 of 2): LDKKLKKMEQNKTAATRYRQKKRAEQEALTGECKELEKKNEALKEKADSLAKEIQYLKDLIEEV

B1: Hetero (CGAT|GCAA) unmethylated (dsDNA)
DNA 1: GTCAGTCAGACGATGCAATATAGGTCAG
DNA 2: CTGACCTATATTGCATCGTCTGACTGAC
Turning to B1, the binding signal in data set [1] was 10 fold weaker than methylated N2.

B2: 10-mer-A (M) (dsDNA)
DNA 1: GTCAGTCAGATTGCGCAATATAGGTCAG
DNA 2: CTGACCTATATTGCGCAATCTGACTGAC
modifications: 5mC at position 14 of each strand
In the case of B2, in the data set with CEBPB B-ZIP domain, the “apparent K (half saturation)” value is roughly 5 nM.

Source of the values: publication PMC3668366.
